Experimental data: patent publication US12514920B1, “Respiratory syncytial virus mRNA vaccine, and preparation method therefor and use thereof” (Hangzhou Tianlong Pharmaceutical Co., Ltd., priority 2024, dated 2026)

Assays:
[1] = tested on: RSV pre-F antibody (3C12); test: ELISA binding of RSV F antigen mutants, epitope Φ; conditions: for Binding amount to antibody/binding amount of PC-RSV-064 to antibody, Epitope Φ: antibody 3C12, relative to PC-RSV-064
Method: (§1) To investigate the binding of the RSV F antigen mutants to antibodies recognizing different epitopes, the binding amount was determined by an ELISA method in this example.
(§2) • 293T cells (purchased from ATCC cell bank); • Primary antibody: RSV pre-F antibody (3C12), epitope ([…] (Novoprotein, Cat. No.: DA101); • RSV pre-F antibody (7H11), epitope Quaternary (Novoprotein, Cat. No.: DA109); • RSV F antibody (11A9), epitope II (Novoprotein, Cat. No.: DA091); • RSV F antibody (4B9), epitope III (Novoprotein, Cat. No.: DA110); • RSV pre-F antibody (7E11), epitope V (Cat. No.: DA119); • Standard: RSV-pre-F trimer protein (Novoprotein, Cat. No.: DRA230); • Secondary antibody: peroxidase AffiniPure goat anti-human IgG (H+L) (Yeasen, Cat. No.: N/A); • Experimental group: mRNA vaccines after screening in Example 5;
(§3) Cell culture and transfection, and protein sample preparation: the experimental procedures were the same as in Example 3.
(§4) Detection of antigen expression by ELISA: the experimental procedures were the same as in Example 5.
(§5) In the present application, the binding of different mutant antigens to antibodies recognizing different epitopes was detected by ELISA, and the strength of the binding of the antigens to the antibodies was measured by the binding amount. (1) The RSV pre-F antibody (3C12) recognizing the epitope Φ binds only to the F protein in the pre-fusion conformation; (2) the RSV pre-F antibody (7H11) recognizes the epitope Quaternary (spanning both epitopes IV and V) and specifically binds to the F protein in the pre-fusion conformation; (3) the RSV F antibody (11A9) recognizing the epitope II can recognize both the pre-fusion and post-fusion conformations of the F protein; (4) the RSV F antibody […] recognizing the epitope III preferentially recognizes the pre-fusion conformation and has relatively weak binding activity for the post-fusion conformation; (5) the RSV pre-F antibody (7E11) recognizing the epitope V binds only to the F protein in the pre-fusion conformation.

[2] = tested on: RSV pre-F antibody (3C12); assay type: physicochemical; conditions: for stability under the stress tests (in words): all stress tests, binding to 3C12, ELISA; for Stress resistance parameter, Osmotic pressure (mM) 3000: high osmotic pressure 3000 mM; for Stress resistance parameter, Osmotic pressure (mM) 3000 / Stress resistance parameter, Osmotic pressure (mM) 10: room temperature; for Stress resistance parameter, Osmotic pressure (mM) 3000 / Stress resistance parameter, Osmotic pressure (mM) 10 / Stress resistance parameter, pH 3.5 / Stress resistance parameter, pH 10: 60 min; for Stress resistance parameter, Osmotic pressure (mM) 3000 / Stress resistance parameter, Temperature (° C.) 50 / Stress resistance parameter, Osmotic pressure (mM) 10 / Stress resistance parameter, pH 3.5 / Stress resistance parameter, pH 10 / Stress resistance parameter, Temperature (° C.) 4: ELISA binding to 3C12; for Stress resistance parameter, Temperature (° C.) 50: incubation at 50° C. for 60 min; for Stress resistance parameter, Osmotic pressure (mM) 10: low osmotic pressure 10 mM; for Stress resistance parameter, pH 3.5: pH 3.5, room temperature; for Stress resistance parameter, pH 10: pH 10, room temperature; for Stress resistance parameter, Temperature (° C.) 4: storage at 4° C. for one week
Procedure, shortened: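 RSV F mRNA-vaccine mutants stress-treated: 4° C. for one week, 50° C. for 60 min, low or high osmotic pressure at room temperature for 60 min, acid or base at room temperature for 60 min. Binding to 3C12 (epitope Φ) then measured by ELISA against pre-F trimer standard, HRP anti-human IgG, OD 450/630 nm.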

[3] = tested on: RSV pre-F antibody (7H11); test: ELISA binding of RSV F antigen mutants, epitope Quaternary; conditions: for Binding amount to antibody/binding amount of PC-RSV-064 to antibody, Epitope Quaternary: antibody 7H11, relative to PC-RSV-064
Method: as §1, §2, §3, §4, §5

[4] = tested on: RSV pre-F antibody (7E11); test: ELISA binding of RSV F antigen mutants, epitope V; conditions: for Binding amount to antibody/binding amount of PC-RSV-064 to antibody, Epitope V: antibody 7E11, relative to PC-RSV-064
Method: as §1, §2, §3, §4, §5

[5] = tested on: RSV F antibody (4B9); test: ELISA binding of RSV F antigen mutants, epitope III; conditions: for Binding amount to antibody/binding amount of PC-RSV-064 to antibody, Epitope III: antibody 4B9, relative to PC-RSV-064
Method: as §1, §2, §3, §4, §5

Row | Molecule | binding of epitope Φ, epitope Quaternary and epitope V to the corresponding antibodies (in words) ([1]; ELISA, antibodies 3C12, 7H11, 7E11) | ELISA binding amount, Epitope Φ, RSV pre-F antibody (3C12) [1] | Binding amount to antibody/binding amount of PC-RSV-064 to antibody, Epitope Φ [1] | stability under the stress tests (in words) [2] | Stress resistance parameter, Osmotic pressure (mM) 3000 [2] | Stress resistance parameter, Temperature (° C.) 50 [2] | Stress resistance parameter, Osmotic pressure (mM) 10 [2] | Stress resistance parameter, pH 3.5 [2] | Stress resistance parameter, pH 10 [2] | Stress resistance parameter, Temperature (° C.) 4 [2] | ELISA binding amount, Epitope Quaternary, RSV pre-F antibody (7H11) [3] | Binding amount to antibody/binding amount of PC-RSV-064 to antibody, Epitope Quaternary [3] | ELISA binding amount, Epitope V, RSV F antibody (7E11) [4] | Binding amount to antibody/binding amount of PC-RSV-064 to antibody, Epitope V [4] | ELISA binding amount, Epitope III, RSV F antibody (4B9) [5] | Binding amount to antibody/binding amount of PC-RSV-064 to antibody, Epitope III [5]
1 | YK-RSV-048 (protein) QNITEEFYQSTCSAVSKGYLGALRTGWYTSVITIELSNIKENKCNGTDAKVKLIKQELDKYKNAVTDLQLLMQSTPATGSGSFLGFLCGVGSAIASGVAVSKVLHLEGEVNKIKSALLSTNKAVVSLSNGVSVLTFKVLDLKNYIDKQLLPILNKQSCSIPNIETVIEFQQKNNRLLEITREFSVNAGVTTPVSTYMLTNSELLSLINDMPITNDQKKLMSNNVQIVRQQSYSIMSIIKEEVLAYVVQLPLYGVIDTPCWKLHTSPLCTTNTKEGSNICLTRTDRGWYCDNAGSVSFFPQAETCKVQSNRVFCDTMCSRTLPSEVNLCNVDIFNPKYDCKIMTSKTDVSSSVITSLGAIVSCYGKTKCTASNKNRGIIKTFSNGCDYVSNKGVDTVSVGNTLYYVNKQEGQSLYVKGEPIINFYDPLVFPSDEFDASISQVNEKINQSLAFIRKSDELLHNVNAGKSTTNIMITTIIIVIIVILLSLIAVGLLLY | able to well bind | 3306 ng/mL | 1.19 | superior stability | 0.61 ± 0.17 | 0.70 ± 0.07 | 0.75 ± 0.00 | 0.61 ± 0.07 | 1.13 ± 0.19 | 0.46 ± 0.08 | 2873 ng/mL | 0.80 | 217 ng/mL | 0.68 | 4655 ng/mL | 1.62
2 | YK-RSV-009 (protein) QNITEEFYCSTCSAVSKGYLGALRTGWYTSVILIELSNIKENKCNGTDAKVKLIKQELDKYKNAVTDLQLLMQSTPATGSGSAIASGVAVSKVLHLEGEVNKIKSALLSTNKAVVSLSNGVSVLTFKVLDLKNYIDKQLLPIVNKQSCSIPNIETVIEFQQKNNRLLEITREFSVNAGVTTPVSTYMLTNSELLSLINDMPITNDQKKLMSNNVQIVRQQSYSIMSIIKEEVLAYVVQLPLYGVIDTPCWKLHTSPLCTTNTKEGSNICLTRTDRGWYCDNAGSVSFFPQAETCKVQSNRVFCDTMNSRTLPSEVNLCNVDIFNPKYDCKIMTSKTDVSSSVITSLGAIVSCYGKTKCTASNKNRGIIKTFSNGCDYVSNKGVDTVSVGNTLYYVNKQEGQSLYVKCEPIINFYDPLVFPSSEFDASISQVNEKINQSLAFIRKSDELLHNVNAGKSTTNIMITTIIIVIIVILLSLIAVGLLLY |  | 521 ng/mL | 0.19 | superior stability | 0.69 ± 0.15 | 0.84 ± 0.04 | 0.78 ± 0.15 | 0.60 ± 0.14 | 0.91 ± 0.04 | 0.71 ± 0.11 | 29 ng/mL | 0.01 | 43 ng/mL | 0.13 | 358 ng/mL | 0.12
3 | YK-RSV-043 (protein) QNITEEFYQSTCSAVSKGYLGALRTGWYTSVITIELSNIKENKCNGTDAKVKLIKQELDKYKNAVTDLQLLMQSCPATGSGSAIACGVAVSKVLHLEGEVNKIKSALLSTNKAVVSLSNGVSVLTFKVLDLKNYIDKQLLPILNKQSCSIPNIETVIEFQQKNNRLLEITREFSVNAGVTTPVSTYMLTNSELLSLINDMPITNDQKKLMSNNVQIVRQQSYSIMSIIKEEVLAYVVQLPLYGVIDTPCWKLHTSPLCTTNTKEGSNICLTRTDRGWYCDNAGSVSFFPQAETCKVQSNRVFCDTMNSRTLPSEVNLCNVDIFNPKYDCKIMTSKTDVSSSVITSLGAIVSCYGKTKCTASNKNRGIIKTFSNGCDYVSNKGVDTVSVGNTLYYVNKQEGQSLYVKGEPIINFYDPLVFPSDEFDASISQVNEKINQSLAFIRKSDELLHNVNAGKSTTNIMITTIIIVIIVILLSLIAVGLLLY |  | 9445 ng/mL | 3.41 | superior stability | 0.72 ± 0.09 | 0.66 ± 0.06 | 0.84 ± 0.18 | 0.90 ± 0.13 | 0.75 ± 0.28 | 0.70 ± 0.13 | 922 ng/mL | 0.26 | 223 ng/mL | 0.69 | 6529 ng/mL | 2.28
4 | YK-RSV-010 (protein) QNITEEFYQSTCSAVSKGYLGALRTGWYTCVILIELSNIKENKCNGTDAKVKLIKQELDKYKNAVTDLQLLMQSTPATGSGSAIASGVAVSKVLHLEGEVNKIKSALLSTNKAVVSLSNGVSVCTFKVLDLKNYIDKQLLPIVNKQSCSIPNIETVIEFQQKNNRLLEITREFSVNAGVTTPVSTYMLTNSELLSLINDMPITNDQKKLMSNNVQIVRQQSYSIMSIIKEEVLAYVVQLPLYGVIDTPCWKLHTSPLCTTNTKEGSNICLTRTDRGWYCDNAGSVSFFPQAETCKVQSNRVFCDTMNSRTLPSEVNLCNVDIFNPKYDCKIMTSKTDVSSSVITSLGAIVSCYGKTKCTASNKNRGIIKTFSNGCDYVSNKGVDTVSVGNTLYYVNKQEGQSLYVKGEPIINFYDPLVFPSSEFDASISQVNEKINQSLAFIRKSDELLHNVNAGKSTTNIMITTIIIVIIVILLSLIAVGLLLY |  | 838 ng/mL | 0.30 | superior stability | 0.84 ± 0.11 | 1.04 ± 0.09 | 0.97 ± 0.07 | 0.82 ± 0.05 | 0.93 ± 0.05 | 0.86 ± 0.08 | 39 ng/mL | 0.01 | 139 ng/mL | 0.43 | 534 ng/mL | 0.19
